{"source": "paper PMC10333351", "about": "(Nature Communications, 2023)", "binders": {"B1": {"name": "Mb(Ec/KpFtsZ_S1), His10-tagged (designed binder)", "chain": "MKHHHHHHHHHHSSDYKDDDDKGENLYFQGSVSSVPTKLEVVAATPTSLLISWDAPAVTVSYYRITYGETGGNSPVQEFTVPGSKSTATISGLSPGVDYTITVYARSAYHRRSPISINYRT"}, "B2": {"name": "truncated KpFtsZ (residues 11-316), tag removed (domain or fragment, Klebsiella pneumoniae, UniProt W9BCK7 11-316, looked up)", "chain": "AVIKVIGVGGGGGNAVEHMVRERIEGVEFFAVNTDAQALRKTAVGQTIQIGSGITKGLGAGANPEVGRNAADEDREALRAALDGADMVFIAAGMGGGTGTGAAPVVAEVAKDLGILTVAVVTKPFNFEGKKRMAFAEQGITELSKHVDSLITIPNDKLLKVLGRGISLLDAFGAANDVLKGAVQGIAELITRPGLMNVDFADVRTVMSEMGYAMMGSGVASGEDRAEEAAEMAISSPLLEDIDLSGARGVLVNITAGFDLRLDEFETVGNTIRAFASDNATVVIGTSLDPDMNDELRVTVVATGIG", "notes": "FtsZ, Klebsiella pneumoniae, residues 11-316; also called KpFtsZtr; source: E. coli, purified (HisTrap, HiTrap Q, Superdex200), tag removed with TEV protease; not shown: His6, N-terminal, cleaved"}, "B3": {"name": "truncated EcFtsZ (residues 11-316), tag removed (domain or fragment, Escherichia coli, UniProt P0A9A6 11-316, looked up)", "chain": "B2 chain with E76D, D83E", "notes": "FtsZ, Escherichia coli, residues 11-316; also called EcFtsZtr; source: E. coli, purified (HisTrap, HiTrap Q, Superdex200), tag removed with TEV protease; not shown: His6, N-terminal, cleaved"}, "B4": {"name": "FtsZ from Klebsiella pneumoniae, full length, tag removed (natural protein, UniProt W9BCK7 1-383, looked up)", "chain": "MFEPMELTNDAVIKVIGVGGGGGNAVEHMVRERIEGVEFFAVNTDAQALRKTAVGQTIQIGSGITKGLGAGANPEVGRNAADEDREALRAALDGADMVFIAAGMGGGTGTGAAPVVAEVAKDLGILTVAVVTKPFNFEGKKRMAFAEQGITELSKHVDSLITIPNDKLLKVLGRGISLLDAFGAANDVLKGAVQGIAELITRPGLMNVDFADVRTVMSEMGYAMMGSGVASGEDRAEEAAEMAISSPLLEDIDLSGARGVLVNITAGFDLRLDEFETVGNTIRAFASDNATVVIGTSLDPDMNDELRVTVVATGIGMDKRPEITLVTNKQVQQPVMDRYQQHGMSPLTQEQKPAAKVVNDNTPQTAKEPDYLDIPAFLRKQAD", "notes": "Used for cryoEM; Polymer (protofilament or double-helical tube); also called KpFtsZ; source: E. coli, purified (HisTrap, HiTrap Q, Superdex200), tag removed with TEV protease; not shown: His6, N-terminal, cleaved"}, "B5": {"name": "FtsZ from Klebsiella pneumoniae, full length, purified (tag state not stated) (natural protein, UniProt W9BCK7 1-383, looked up)", "chain": "B4 chain", "notes": "Used for SPR (analyte) and negative staining EM; also called KpFtsZ; source: E. coli, purified (HisTrap, HiTrap Q, Superdex200)"}}, "key": {"[1]": {"biological_target": "T1, FtsZ from Klebsiella pneumoniae, full length, purified (tag state not stated) (Klebsiella pneumoniae, UniProt W9BCK7 1-383)", "T1 chain": "B4 chain", "assay": "SPR"}, "[2]": {"biological_target": "T2, FtsZ from Escherichia coli, full length, purified (tag state not stated) (Escherichia coli, UniProt P0A9A6 1-383)", "T2 chain": "B4 chain with E86D, D93E, S345A, A354V, T362A", "assay": "SPR"}, "[3]": {"biological_target": "the molecule itself", "assay": "crystal structure; FtsZtr mixed with 1.2x molar excess of Mb and PC190723; hanging drop, 293 K, 0.2 M sodium formate, 0.1 M Bis-Tris propane pH 6.5, 20% PEG3350; space groups P212121 and P21"}, "[4]": {"biological_target": "the molecule itself", "assay": "cryo-EM structure; KpFtsZ-Mb double-helical tube: 4.0 mg/ml KpFtsZ, 20 mM HEPES pH 7.5, 25 mM NaCl, 100 mM KCl, 5 mM MgCl2, 1 mM GMPPNP, 0.12 mM PC190723, 1.2x molar excess of Mb"}, "[5]": {"biological_target": "the molecule itself", "assay": "negative staining EM; 1.0 mg/ml purified KpFtsZ alone or with 1 mM GTP, GMPCPP, GDP or GMPPNP; uranyl acetate stain"}}, "note": "Numbering of substitutions follows the chain as printed.", "data": [{"binder": "B1", "values": [{"measurement": "koff", "setting": "[1]", "value": 0.67, "unit": "s⁻¹"}, {"measurement": "koff", "setting": "[2]", "value": 0.39, "unit": "s⁻¹"}]}, {"binder": "B2", "values": [{"measurement": "binding result", "setting": "[3]", "value": "binds"}]}, {"binder": "B3", "values": [{"measurement": "binding result", "setting": "[3]", "value": "binds"}]}, {"binder": "B4", "values": [{"measurement": "binding result", "setting": "[4]", "value": "binds"}]}, {"binder": "B5", "values": [{"measurement": "binding result", "setting": "[5]", "value": "binds"}]}]}
